Data taken from patent publication US20070065890A1, “Method for promoting formation of facultative heterochromatin” (priority 2005, published 2007).

Tests used:
[1] = test system: pTK-Luc reporter under the control of Gal4; assay: Transient transfection Gal4 pTK-Luc reporter assay; type: cell-based; settings: 293F cells, luciferase normalized to β-galactosidase
Procedure: Transfections. All transfections were carried out in 293F cells using the indicated plasmids and POLYFECT (QIAGEN, Valencia, Calif.) following the protocol provided by the manufacturer. Nuclear and cytoplasmic fractions were isolated by a modified protocol (Dignam, et al. (1983) Methods Enzymol. 101:582-598). Fractions were analyzed by immunoprecipitation with the indicated antibodies followed by immunoblotting, or by luciferase activity (TD20e luminometer; Turner BioSystems, Sunnyvale, Calif.) . In the case of transient transfections, a β-gal reporter was used as a transfection control and the levels of luciferase activity were normalized to those of β-galactosidase, shown as a percentage. dsRNAi was ordered as a custom SMARTPOOL against SirT1 (Dharmacon, Lafayette, Colo.) and was transfected into U2OS cells using RNAFECT (QIAGEN, Valencia, Calif.). After incubation for 48 hours, cells were harvested and lysed with RIPA buffer (50 mM Tris-HCl, pH 7.4, 1% NP40, 0.25% Na-deoxycholate, 150 mM NaCl, 1 mM EDTA, 1 mM PMSF, 1 mM leupeptin, 1 mM aprotinin, and 1 mM pepstatin). Western blots were performed using the indicated antibodies. Total H4 was visualized by both western and COOMASSIE blue staining.
Plasmids. […]

[2] = target: T1, recombinant human H1b (Homo sapiens, UniProt P10412); assay: In vitro deacetylation of p300-acetylated recombinant H1b by SirT proteins; type: biochemical; settings: equal NAD+-exchange units measured using acetylated BSA as substrate
T1 construct: Human histone H1b and H1° were inserted into HA-Pet30c; HA (N); made in house; host or cells: E. coli BL21 (DE3)
Procedure: Detection of H1 acetylation was performed by using 4 μg of histone H1 (Upstate Biotechnology, Inc., Lake Placid, N.Y.) as an acetylated substrate for SirT1 in the NER. Deacetylation was determined by first performing a deacetylation assay using 20 and 40 μg of H1 and 6 nmol of SirT1. H1 was then isolated in the supernatant of chilled 5% perchloric acid, TCA precipitated (Albig, et al. (1998) FEBS Lett. 435:245-250), and resuspended in buffer C containing 100 mM KCl. Deacetylated H1 was then used in a subsequent NER. In vitro acetylation of H1 or recombinant H1b expressed in E. coli was carried out by incubating 10 μg H1 with 2 nmol baculovirus-generated p300 in the presence of 0.875 μCi [H^3]-Ac-CoA (Amersham, Piscataway, N.J.) in HAT buffer (75 mM Tris-HCl [pH 8.8], 135 mM NaCl). Deacetylation was carried out with the specified enzyme as above using 1 μg of the labeled Hi. […] Counts were then determined by liquid scintillation (PERKINELMER, Wellesley, Mass.) . […] In vivo H1 acetylation was analyzed by treating 293 cells for 18 hours in media containing 5 mM nicotinamide. H1 was purified as described (Albig, et al. (1998) supra) and analyzed in the NER. […]
SirT1 activity on histone H1 was directly tested in vitro. […] The same result was observed using recombinant human H1b; however, specificity was also scored in this assay using different SirT proteins.

T1 sequence (P10412 2-219): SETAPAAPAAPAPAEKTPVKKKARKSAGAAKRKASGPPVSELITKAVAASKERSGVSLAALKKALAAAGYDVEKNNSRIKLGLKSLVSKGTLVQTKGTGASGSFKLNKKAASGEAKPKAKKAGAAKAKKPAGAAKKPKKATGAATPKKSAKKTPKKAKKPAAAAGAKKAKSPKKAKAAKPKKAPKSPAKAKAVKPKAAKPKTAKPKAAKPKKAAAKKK

B1: G4-SirT1: SirT1 fused to the Gal4 DNA binding domain (protein)
chain: MKLLSSIEQACDICRLKKLKCSKEKPKCAKCLKNNWECRYSPKTKRSPLTRAHLTEVESRLERLEQLFLLIFPREDLDMILKMDSLQDIKALLTGLFVQDNVNKDAVTDRLASVETDMPLTLRQHRISATSSSEESSNKGQRQLTVSMADEAALALQPGGSPSAAGADREAASSPAGEPLRKRPRRDGPGLERSPGEPGGAAPEREVPAAARGCPGAAAAALWREAEAEAAAAGGEQEAQATAAAGEGDNGPGLQGPSREPPLADNLYDEDDDDEGEEEEEAAAAAIGYRDNLLFGDEIITNGFHSCESDEEDRASHASSSDWTPRPRIGPYTFVQQHLMIGTDPRTILKDLLPETIPPPELDDMTLWQIVINILSEPPKRKKRKDINTIEDAVKLLQECKKIIVLTGAGVSVSCGIPDFRSRDGIYARLAVDFPDLPDPQAMFDIEYFRKDPRPFFKFAKEIYPGQFQPSLCHKFIALSDKEGKLLRNYTQNIDTLEQVAGIQRIIQCHGSFATASCLICKYKVDCEAVRGDIFNQVVPRCPRCPADEPLAIMKPEIVFFGENLPEQFHRAMKYDKDEVDLLIVIGSSLKVRPVALIPSSIPHEVPQILINREPLPHLHFDVELLGDCDVIINELCHRLGGEYAKLCCNPVKLSEITEKPPRTQKELAYLSELPPTPLHVSEDSSSPERTSPPDSSVIVTLLDQAAKSNDDLDVSESKGCMEEKPQEVQTSRNVESIAEQMENPDLKNVGSSTGEKNERTSVAGTVRKCWPNRVAKEQISRRLDGNQYLFLPPNRYIFHGAEVYSDSEDDVLSSSSCGSNSDSGTCQSPSLEEPMEDESEIEEFYNGLEDEPDVPERAGGAGFGTDGDDQEAINEAISVKQEVTDMNYPSNKS
In the case of B1, the “repression of reporter expression” value [1] is reported as “approximately 100%”.

B2: SirT3: Recombinant SirT3 expressed from baculovirus in SF9 cells (protein)
chain: MAFWGWRAAAALRLWGRVVERVEAGGGVGPFQACGCRLVLGGRDDVSAGLRGSHGARGEPLDPARPLQRPPRPEVPRAFRRQPRAAAPSFFFSSIKGGRRSISFSVGASSVVGSGGSSDKGKLSLQDVAELIRARACQRVVVMVGAGISTPSGIPDFRSPGSGLYSNLQQYDLPYPEAIFELPFFFHNPKPFFTLAKELYPGNYKPNVTHYFLRLLHDKGLLLRLYTQNIDGLERVSGIPASKLVEAHGTFASATCTVCQRPFPGEDIRADVMADRVPRCPVCTGVVKPDIVFFGEPLPQRFLLHVVDFPMADLLLILGTSLEVEPFASLTEAVRSSVPRLLINRDLVGPLAWHPRSRDVAQLGDVVHGVESLVELLGWTEEMRDLVQRETGKLDGPDK
With B2 the H1b deacetylation [2] was “failed to significantly deacetylate H1b”.

B3: SirT2: Recombinant SirT2 expressed in E. coli (protein)
chain: MAEPDPSHPLETQAGKVQEAQDSDSDSEGGAAGGEADMDFLRNLFSQTLSLGSQKERLLDELTLEGVARYMQSERCRRVICLVGAGISTSAGIPDFRSPSTGLYDNLEKYHLPYPEAIFEISYFKKHPEPFFALAKELYPGQFKPTICHYFMRLLKDKGLLLRCYTQNIDTLERIAGLEQEDLVEAHGTFYTSHCVSASCRHEYPLSWMKEKIFSEVTPKCEDCQSLVKPDIVFFGESLPARFFSCMQSDFLKVDLLLVMGTSLQVQPFASLISKAPLSTPRLLINKEKAGQSDPFLGMIMGLGGGMDFDSKKAYRDVAWLGECDQGCLALAELLGWKKELEDLVRREHASIDAQSGAGVPNPSTSASPKKSPPPAKDEARTTEREKPQ
In the case of B3, the H1b deacetylation [2] is reported as “failed to significantly deacetylate H1b”.
